The source of these data is patent publication US20030068806A1.

Data set [1] concerns T1, p70 heparanase (about 70 kDa form of recombinant human heparanase expressed in mammalian cells).
T1 sequence: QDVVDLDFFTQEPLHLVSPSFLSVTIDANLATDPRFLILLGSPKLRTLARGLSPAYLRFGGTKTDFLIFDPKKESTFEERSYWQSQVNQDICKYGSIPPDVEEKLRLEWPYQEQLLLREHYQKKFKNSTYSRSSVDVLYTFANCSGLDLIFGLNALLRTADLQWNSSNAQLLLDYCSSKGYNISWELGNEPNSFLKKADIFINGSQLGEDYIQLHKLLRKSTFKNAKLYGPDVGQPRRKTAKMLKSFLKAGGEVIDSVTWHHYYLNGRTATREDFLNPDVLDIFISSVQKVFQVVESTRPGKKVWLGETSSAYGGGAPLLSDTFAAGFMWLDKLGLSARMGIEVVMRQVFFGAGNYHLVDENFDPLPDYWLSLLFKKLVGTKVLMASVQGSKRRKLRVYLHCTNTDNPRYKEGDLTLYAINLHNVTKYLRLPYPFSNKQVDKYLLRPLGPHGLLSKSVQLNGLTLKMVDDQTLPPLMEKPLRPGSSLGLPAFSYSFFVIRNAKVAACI

Data set [2] concerns T2, p70-bac heparanase (human recombinant heparanase secreted by baculovirus infected insect cells).
T2 sequence: T1 sequence

Consider trypsin (Cat. No. T-8642, Sigma USA), for which the “heparanase activity (DMB assay) after trypsin digestion of CHO conditioned medium” value in data set [1] was “recombinant heparanase processing and activation occurred when mild trypsin digestion was employed on a crude conditioned medium of CHO cells that secrete mammalian p70 heparanase (FIG. 27). Activation was dose dependent”. In addition, the “heparanase activity (DMB assay) after trypsin digestion” value in data set [2] is “reaching maximal activation of five-fold already at 15 units trypsin”.
Take “cathepsin L (Cat. No. 219412, Calbiochem)”: the “heparanase activity (DMB assay) and Western blot before and after cathepsin L” value in data set [2] was “demonstrates proteolytic processing of p70-bac heparanase by cathepsin L”.
